# B1: murine monoclonal antibody NKVSF1 (Pan2D) (antibody, V domains shown)
# VH: EVQLQQSGTVLARPGASVKMSCKASGYTFTSYWMHWMKQRPGQGLEWIGTIYPGNSDTNYNQKFKGKAKLTAVTSTNTAYMELSSLTNEDSAVYYCSRPTTATRSSAMDYWGQGTSVTVSS
# VL: QIVLTQSPASMSASLGERVTMTCTASSSVSSSYLYWYQQKPGSSPKLWIYSTSNLASGVPARFSGSGSGTSYSLTISSMEAEDAATYYCHQYHRSPPTFGGGTKLEIKR
# notes: Mouse mAb, bought from Serotec, cat
# B2: human monoclonal antibody 1-7F9 (antibody, human IgG4, kappa, V domains shown)
# VH: QVQLVQSGAEVKKPGSSVKVSCKASGGTFSFYAISWVRQAPGQGLEWMGGFIPIFGAANYAQKFQGRVTITADESTSTAYMELSSLRSDDTAVYYCARIPSGSYYYDYDMDVWGQGTTVTVSS
# VL: EIVLTQSPVTLSLSPGERATLSCRASQSVSSYLAWYQQKPGQAPRLLIYDASNRATGIPARFSGSGSGTDFTLTISSLEPEDFAVYYCQQRSNWMYTFGQGTKLEIKR
# notes: also called HuKIR 1-7F9; mAb 1-7F9
# How the values were obtained:
# [1] = biological target: recombinant soluble KIR2DL3 (entire extracellular domain, produced in E. coli) (human) (UniProt P43628); experiment: Biacore, immobilized KIR2DL3; second Ab GL183 injected after first Ab 1-4F1
# [2] = biological target: recombinant soluble KIR2DL3 (entire extracellular domain, produced in E. coli) (human) (UniProt P43628); experiment: Biacore competition, immobilized KIR2DL3; first Ab gl183, competitor (second Ab) 1-7F9; parameters: concentration or dose not given beside the values
# [3] = biological target: recombinant soluble KIR2DL3 (entire extracellular domain, produced in E. coli) (human) (UniProt P43628); experiment: Biacore competition, immobilized KIR2DL3; first Ab gl183, competitor (second Ab) DF200; parameters: concentration or dose not given beside the values
# [4] = biological target: recombinant soluble KIR2DL3 (entire extracellular domain, produced in E. coli) (human) (UniProt P43628); experiment: Biacore competition, immobilized KIR2DL3; first Ab gl183, competitor (second Ab) 1-4F1; parameters: concentration or dose not given beside the values
# [5] = biological target: recombinant soluble KIR2DL3 (entire extracellular domain, produced in E. coli) (human) (UniProt P43628); experiment: Biacore, immobilized KIR2DL3; second Ab GL183 injected after first Ab 1-6F1
# [6] = biological target: recombinant soluble KIR2DL3 (entire extracellular domain, produced in E. coli) (human) (UniProt P43628); experiment: Biacore, immobilized KIR2DL3; second Ab GL183 alone (field of first Ab 1-6F1)
# [7] = biological target: recombinant soluble KIR2DL3 (entire extracellular domain, produced in E. coli) (human) (UniProt P43628); experiment: Biacore competition, immobilized KIR2DL3; first Ab gl183, competitor (second Ab) 1-6F1; parameters: concentration or dose not given beside the values
# [8] = biological target: recombinant soluble KIR2DL3 (entire extracellular domain, produced in E. coli) (human) (UniProt P43628); experiment: Biacore, immobilized KIR2DL3; second Ab GL183 alone (field of first Ab 1-7F9)
# [9] = biological target: recombinant soluble KIR2DL3 (entire extracellular domain, produced in E. coli) (human) (UniProt P43628); experiment: Biacore competition, immobilized KIR2DL3; first Ab gl183, competitor (second Ab) Pan2D; parameters: concentration or dose not given beside the values
# [10] = biological target: recombinant soluble KIR2DL3 (entire extracellular domain, produced in E. coli) (human) (UniProt P43628); experiment: Biacore, immobilized KIR2DL3; second Ab GL183 alone (field of first Ab 1-4F1)
# [11] = biological target: recombinant soluble KIR2DL3 (entire extracellular domain, produced in E. coli) (human) (UniProt P43628); experiment: Biacore, immobilized KIR2DL3; second Ab GL183 injected after first Ab 1-7F9
# [12] = biological target: recombinant soluble KIR2DL3 (entire extracellular domain, produced in E. coli) (human) (UniProt P43628); experiment: Biacore competition, immobilized KIR2DL3; first Ab DF200, competitor (second Ab) GL183; parameters: concentration or dose not given beside the values
# [13] = biological target: recombinant soluble KIR2DL3 (entire extracellular domain, produced in E. coli) (human) (UniProt P43628); experiment: Biacore competition, immobilized KIR2DL3; first Ab DF200, competitor (second Ab) 1-7F9; parameters: concentration or dose not given beside the values
# [14] = biological target: recombinant soluble KIR2DL3 (entire extracellular domain, produced in E. coli) (human) (UniProt P43628); experiment: Biacore competition, immobilized KIR2DL3; first Ab DF200, competitor (second Ab) 1-4F1; parameters: concentration or dose not given beside the values
# [15] = biological target: recombinant soluble KIR2DL3 (entire extracellular domain, produced in E. coli) (human) (UniProt P43628); experiment: Biacore, immobilized KIR2DL3; second Ab DF200 injected after first Ab 1-4F1
# [16] = biological target: recombinant soluble KIR2DL1 (entire extracellular domain, produced in E. coli) (human) (UniProt P43626); experiment: Biacore SPR, KIR2DL1 immobilized on CM5, antibody as analyte (bivalent binding), Example 3
# [17] = biological target: recombinant soluble KIR2DL3 (entire extracellular domain, produced in E. coli) (human) (UniProt P43628); experiment: Biacore, immobilized KIR2DL3; second Ab DF200 injected after first Ab 1-6F5
# [18] = biological target: recombinant soluble KIR2DL3 (entire extracellular domain, produced in E. coli) (human) (UniProt P43628); experiment: Biacore competition, immobilized KIR2DL3; first Ab DF200, competitor (second Ab) 1-6F1; parameters: concentration or dose not given beside the values
# [19] = biological target: recombinant soluble KIR2DL3 (entire extracellular domain, produced in E. coli) (human) (UniProt P43628); experiment: Biacore competition, immobilized KIR2DL3; first Ab DF200, competitor (second Ab) Pan2D; parameters: concentration or dose not given beside the values
# [20] = biological target: recombinant soluble KIR2DL3 (entire extracellular domain, produced in E. coli) (human) (UniProt P43628); experiment: Biacore, immobilized KIR2DL3; second Ab DF200 injected after first Ab 1-6F1
# [21] = biological target: recombinant soluble KIR2DL3 (entire extracellular domain, produced in E. coli) (human) (UniProt P43628); experiment: Biacore competition, immobilized KIR2DL3; first Ab DF200, competitor (second Ab) 1-6F5; parameters: concentration or dose not given beside the values
# [22] = biological target: recombinant soluble KIR2DL3 (entire extracellular domain, produced in E. coli) (human) (UniProt P43628); experiment: Biacore SPR, KIR2DL3 immobilized on CM5, antibody as analyte (bivalent binding), Example 3
# [23] = biological target: recombinant soluble KIR2DL3 (entire extracellular domain, produced in E. coli) (human) (UniProt P43628); experiment: Biacore, immobilized KIR2DL3; second Ab DF200 injected after first Ab 1-7F9
# [24] = biological target: recombinant soluble KIR2DL3 (entire extracellular domain, produced in E. coli) (human) (UniProt P43628); experiment: Biacore, immobilized KIR2DL3; second Ab DF200 alone (field of first Ab 1-7F9)
# [25] = biological target: recombinant soluble KIR2DL3 (entire extracellular domain, produced in E. coli) (human) (UniProt P43628); experiment: Biacore, immobilized KIR2DL3; second Ab DF200 alone (field of first Ab 1-4F1)
# [26] = biological target: recombinant soluble KIR2DL3 (entire extracellular domain, produced in E. coli) (human) (UniProt P43628); experiment: Biacore, immobilized KIR2DL3; second Ab DF200 alone (field of first Ab 1-6F5)
# [27] = biological target: recombinant soluble KIR2DL3 (entire extracellular domain, produced in E. coli) (human) (UniProt P43628); experiment: Biacore, immobilized KIR2DL3; second Ab DF200 alone (field of first Ab 1-6F1)
# [28] = biological target: T1, KIR2DS3 on transfected cells (human, UniProt Q14952 22-304); experiment: flow cytometry on cells transfected with KIR2DS3 (Figure 16)
# T1 construct: whole, on cells
# T1 sequence (Q14952 22-304): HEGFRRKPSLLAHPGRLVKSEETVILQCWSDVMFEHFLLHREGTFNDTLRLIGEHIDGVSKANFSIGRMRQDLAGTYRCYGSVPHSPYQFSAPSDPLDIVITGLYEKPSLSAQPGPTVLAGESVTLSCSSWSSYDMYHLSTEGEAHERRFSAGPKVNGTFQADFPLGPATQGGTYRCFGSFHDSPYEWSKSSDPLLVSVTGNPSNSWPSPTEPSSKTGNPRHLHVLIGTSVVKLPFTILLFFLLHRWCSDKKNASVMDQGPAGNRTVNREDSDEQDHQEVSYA
# [29] = biological target: recombinant soluble KIR2DL3 (entire extracellular domain, produced in E. coli) (human) (UniProt P43628); experiment: Biacore, immobilized KIR2DL3; second Ab Pan2D alone (field of first Ab 1-6F5)
# [30] = biological target: recombinant soluble KIR2DL3 (entire extracellular domain, produced in E. coli) (human) (UniProt P43628); experiment: Biacore, immobilized KIR2DL3; second Ab Pan2D alone (field of first Ab 1-7F9)
# [31] = biological target: recombinant soluble KIR2DL3 (entire extracellular domain, produced in E. coli) (human) (UniProt P43628); experiment: Biacore, immobilized KIR2DL3; second Ab Pan2D alone (field of first Ab 1-4F1)
# [32] = biological target: recombinant soluble KIR2DL3 (entire extracellular domain, produced in E. coli) (human) (UniProt P43628); experiment: Biacore, immobilized KIR2DL3; second Ab Pan2D injected after first Ab 1-6F1
# [33] = biological target: recombinant soluble KIR2DL3 (entire extracellular domain, produced in E. coli) (human) (UniProt P43628); experiment: Biacore, immobilized KIR2DL3; second Ab Pan2D injected after first Ab 1-4F1
# [34] = biological target: recombinant soluble KIR2DL3 (entire extracellular domain, produced in E. coli) (human) (UniProt P43628); experiment: Biacore, immobilized KIR2DL3; second Ab Pan2D injected after first Ab 1-7F9
# [35] = biological target: recombinant soluble KIR2DL3 (entire extracellular domain, produced in E. coli) (human) (UniProt P43628); experiment: Biacore, immobilized KIR2DL3; second Ab Pan2D alone (field of first Ab 1-6F1)
molecule,measurement,setting,value
GL183 (antibody),RU of second antibody after first antibody (RU2),[1],330 RU
same,% inhibition of second antibody binding,[2],76%
same,% inhibition of second antibody binding,[3],8%
same,% inhibition of second antibody binding,[4],75%
same,RU of second antibody after first antibody (RU2),[5],570 RU
same,RU of second antibody alone (RU1),[6],620 RU
same,% inhibition of second antibody binding,[7],18%
same,RU of second antibody alone (RU1),[8],800 RU
same,% inhibition of second antibody binding,[9],40%
same,RU of second antibody alone (RU1),[10],1240 RU
same,RU of second antibody after first antibody (RU2),[11],200 RU
murine monoclonal antibody DF200,% inhibition of second antibody binding,[12],20%
same,% inhibition of second antibody binding,[13],62%
same,% inhibition of second antibody binding,[14],75%
same,RU of second antibody after first antibody (RU2),[15],210 RU
same,Kd,[16],11 nM
same,RU of second antibody after first antibody (RU2),[17],760 RU
same,% inhibition of second antibody binding,[18],16%
same,% inhibition of second antibody binding,[19],75%
same,RU of second antibody after first antibody (RU2),[20],760 RU
same,% inhibition of second antibody binding,[21],4%
same,Kd,[22],2 nM
same,RU of second antibody after first antibody (RU2),[23],450 RU
same,RU of second antibody alone (RU1),[24],770 RU
same,RU of second antibody alone (RU1),[25],1140 RU
same,RU of second antibody alone (RU1),[26],800 RU
same,RU of second antibody alone (RU1),[27],790 RU
B1,binding result,[28],no binding (tested: 1 μg/ml)
same,RU of second antibody alone (RU1),[29],990 RU
same,RU of second antibody alone (RU1),[30],870 RU
same,RU of second antibody alone (RU1),[31],2400 RU
same,RU of second antibody after first antibody (RU2),[32],1090 RU
same,RU of second antibody after first antibody (RU2),[33],890 RU
same,RU of second antibody after first antibody (RU2),[34],830 RU
same,RU of second antibody alone (RU1),[35],990 RU
B2,binding result,[28],no binding (tested: 1 μg/ml)

# From patent publication WO2006003179A2 (dated 2006)
